Data published in patent US20250019439A1 (Adimab, published 2025).

Experiments:
[1] = biological target: T1, ADI-70327; assay: SPR Carterra avidity, yeast anti-ID
T1 construct: anti-CD3 antibody made in CHO cells, captured by anti-human Fc
Outline: (§1)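 Goat anti-human Fc was amine-coupled to an HC30M sensor chip, then anti-CD3 antibodies at 100 nM were flowed over discrete spots for 5 min. Anti-idiotype antibodies were run in non-regenerative kinetic cycles at 25° C in HBSTE, with 300s dissociation. Blank-subtracted sensorgrams were fitted 1:1.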

[2] = biological target: T2, ADI-76362; assay: SPR Carterra avidity, yeast anti-ID
T2 construct: anti-CD3 antibody made in CHO cells, captured by anti-human Fc
Outline: as §1

[3] = biological target: T3, ADI-67450; assay: SPR Carterra avidity, yeast anti-ID
T3 construct: anti-CD3 antibody made in CHO cells, captured by anti-human Fc
Outline: as §1

[4] = biological target: T4, ADI-70330; assay: SPR Carterra avidity, yeast anti-ID
T4 construct: anti-CD3 antibody made in CHO cells, captured by anti-human Fc
Outline: as §1

[5] = biological target: T5, ADI-26921 IgG; assay: SPR Carterra avidity, yeast anti-ID
T5 construct: anti-CD3 IgG
Outline: as §1

[6] = biological target: T6, CTL-62223; assay: SPR Carterra avidity, yeast anti-ID
T6 construct: also called mosunetuzumab
Outline: as §1

[7] = biological target: T7, ADI-26912; assay: SPR Carterra avidity, yeast anti-ID
T7 construct: anti-CD3 antibody made in CHO cells, captured by anti-human Fc
Outline: as §1

[8] = biological target: T8, ADI-76361; assay: SPR Carterra avidity, yeast anti-ID
T8 construct: anti-CD3 antibody made in CHO cells, captured by anti-human Fc
Outline: as §1

[9] = biological target: T9, ADI-26915; assay: SPR Carterra avidity, yeast anti-ID
T9 construct: anti-CD3 antibody made in CHO cells, captured by anti-human Fc
Outline: as §1

[10] = biological target: T10, ADI-26916 IgG; assay: SPR Carterra avidity, yeast anti-ID, *koff limit
T10 construct: anti-CD3 IgG
Outline: as §1

[11] = biological target: T11, ADI-26928 IgG; assay: BLI; tip ADI-34134 IgG, solution anti-CD3 IgG
T11 construct: anti-CD3 IgG
Experimental: (§2) ForteBio affinity measurements were performed generally as previously described (Estep et al., MAbs. 2013 5(2):270-8). Briefly, ForteBio affinity measurements were performed by loading antibody IgG or Fabs on-line onto AHC sensors. Sensors were equilibrated off-line in assay buffer for 30 minutes and then monitored on-line for 60 seconds for baseline establishment. For avid binding measurement, sensors with loaded antibodies were exposed to IgG or Fab solutions for 3 minutes, afterwards they were transferred to assay buffer for 3 minutes for off-rate measurement. Kinetics data were fit using a 1:1 binding model in the data analysis software provided by ForteBio to obtain equilibrium dissociation constant (KD=koff/kₒₙ) values. In each column, tip-immobilized antibodies are listed first and solution antibodies second.
(§3) In each column, tip-immobilized antibodies are listed first and solution antibodies second.

[12] = biological target: T12, ADI-26954 IgG; assay: BLI; tip ADI-34134 IgG, solution anti-CD3 IgG
T12 construct: anti-CD3 IgG
Experimental: as §2, §3

[13] = biological target: T5, ADI-26921 IgG; assay: BLI; tip ADI-34134 IgG, solution anti-CD3 IgG
Experimental: as §2, §3

[14] = biological target: CTL-19613 IgG; assay: BLI; tip ADI-34134 IgG, solution anti-CD3 IgG
Experimental: as §2, §3

[15] = biological target: T13, ADI-26941 IgG; assay: BLI; tip ADI-34134 IgG, solution anti-CD3 IgG
T13 construct: anti-CD3 IgG
Experimental: as §2, §3

[16] = biological target: T14, ADI-26906 IgG; assay: BLI; tip ADI-34134 IgG, solution anti-CD3 IgG
T14 construct: anti-CD3 IgG
Experimental: as §2, §3

[17] = biological target: T15, ADI-26927 IgG; assay: BLI; tip ADI-34134 IgG, solution anti-CD3 IgG
T15 construct: anti-CD3 IgG
Experimental: as §2, §3

[18] = biological target: T16, ADI-22523 IgG; assay: BLI; tip ADI-34134 IgG, solution anti-CD3 IgG
T16 construct: anti-CD3 IgG
Experimental: as §2, §3

[19] = biological target: T10, ADI-26916 IgG; assay: BLI; tip ADI-34134 IgG, solution anti-CD3 IgG
Experimental: as §2, §3

[20] = biological target: T17, ADI-26913 IgG; assay: BLI; tip ADI-34134 IgG, solution anti-CD3 IgG
T17 construct: anti-CD3 IgG
Experimental: as §2, §3

[21] = biological target: T14, ADI-26906 IgG; assay: SPR Carterra avidity, yeast anti-ID
Outline: as §1

[22] = biological target: T18, ADI-76359; assay: SPR Carterra avidity, yeast anti-ID
T18 construct: anti-CD3 antibody made in CHO cells, captured by anti-human Fc
Outline: as §1

[23] = biological target: T10, ADI-26916 IgG; assay: SPR Carterra avidity, yeast anti-ID
Outline: as §1

[24] = biological target: T19, ADI-67447; assay: SPR Carterra avidity, yeast anti-ID
T19 construct: anti-CD3 antibody made in CHO cells, captured by anti-human Fc
Outline: as §1

[25] = biological target: T20, ADI-74968; assay: SPR Carterra avidity, yeast anti-ID
T20 construct: pH-dependent anti-CD3 antibody made in CHO cells
Outline: as §1

[26] = biological target: T21, ADI-26920 Fab; assay: BLI; tip ADI-34145 IgG, solution anti-CD3 Fab
T21 construct: anti-CD3 Fab by papain digestion of the IgG
Experimental: as §2
(§4) CTL-19613 is an IgG1 antibody prepared with anti-CD3 variable domains corresponding with those of clone 12C described in United States Publication Number US 2010/0183615 (e.g., see paragraphs 469-479 and FIG. 25 thereof), which also make up the CD3 binding domain of the bispecific antibody pasotuxizumab. […] In each column, tip-immobilized antibodies are listed first and solution antibodies second.

[27] = biological target: T22, ADI-22523 Fab; assay: BLI; tip ADI-34145 IgG, solution anti-CD3 Fab
T22 construct: anti-CD3 Fab by papain digestion of the IgG
Experimental: as §2, §4

[28] = biological target: T23, CTL-19613 Fab; assay: BLI; tip ADI-34145 IgG, solution anti-CD3 Fab
T23 construct: anti-CD3 Fab by papain digestion of the IgG1
Experimental: as §2, §4

[29] = biological target: T24, CTL-19672 Fab; assay: BLI; tip ADI-34145 IgG, solution anti-CD3 Fab
T24 construct: anti-CD3 Fab by papain digestion of the IgG1
Experimental: as §2, §4

T10 sequence (VH, as listed by the source, chain 1 of 2): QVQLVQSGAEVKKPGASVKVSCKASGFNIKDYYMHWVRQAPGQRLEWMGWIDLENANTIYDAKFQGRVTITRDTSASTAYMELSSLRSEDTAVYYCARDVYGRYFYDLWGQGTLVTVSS
T10 sequence (VL, as listed by the source, chain 2 of 2): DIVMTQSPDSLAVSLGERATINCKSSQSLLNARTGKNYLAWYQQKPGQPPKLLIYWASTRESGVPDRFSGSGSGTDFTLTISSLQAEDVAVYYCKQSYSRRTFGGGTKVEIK
T5 sequence (VH, as listed by the source limits assumed, chain 1 of 2): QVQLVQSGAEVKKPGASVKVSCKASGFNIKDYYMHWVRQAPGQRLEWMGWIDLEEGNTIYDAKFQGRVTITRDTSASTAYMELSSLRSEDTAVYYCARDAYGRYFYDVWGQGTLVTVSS
T5 sequence (VL, as listed by the source limits assumed, chain 2 of 2): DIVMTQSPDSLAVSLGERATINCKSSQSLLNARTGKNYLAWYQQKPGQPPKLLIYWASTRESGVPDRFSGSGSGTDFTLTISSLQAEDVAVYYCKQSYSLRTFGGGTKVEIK
T14 sequence (VH, as listed by the source limits assumed, chain 1 of 2): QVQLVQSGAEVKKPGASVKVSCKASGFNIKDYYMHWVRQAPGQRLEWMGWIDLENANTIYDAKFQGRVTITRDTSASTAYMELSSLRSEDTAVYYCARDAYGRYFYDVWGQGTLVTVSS
T19 sequence (VH, as listed by the source limits assumed, chain 1 of 2): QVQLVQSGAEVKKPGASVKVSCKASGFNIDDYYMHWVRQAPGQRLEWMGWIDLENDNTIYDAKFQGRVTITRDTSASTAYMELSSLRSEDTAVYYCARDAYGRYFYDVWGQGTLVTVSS
T20 sequence (VH, as listed by the source, chain 1 of 2): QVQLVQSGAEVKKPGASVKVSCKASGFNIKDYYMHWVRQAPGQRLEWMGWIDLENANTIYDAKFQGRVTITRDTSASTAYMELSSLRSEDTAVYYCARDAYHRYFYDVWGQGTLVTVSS
T20 sequence (VL, as listed by the source, chain 2 of 2): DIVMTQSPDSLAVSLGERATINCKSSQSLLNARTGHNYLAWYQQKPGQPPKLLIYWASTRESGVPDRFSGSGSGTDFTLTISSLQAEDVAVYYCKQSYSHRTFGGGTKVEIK
T1 sequence (VH, as listed by the source limits assumed, chain 1 of 2): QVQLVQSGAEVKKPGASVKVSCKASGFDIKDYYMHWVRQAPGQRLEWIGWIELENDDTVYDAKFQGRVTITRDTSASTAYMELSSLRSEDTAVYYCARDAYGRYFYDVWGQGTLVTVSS
T1 sequence (VL, as listed by the source limits assumed, chain 2 of 2): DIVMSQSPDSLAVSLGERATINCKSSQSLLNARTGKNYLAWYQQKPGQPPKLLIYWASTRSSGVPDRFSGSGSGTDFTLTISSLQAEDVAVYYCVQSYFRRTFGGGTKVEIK
T22 sequence (VH, as listed by the source limits assumed, chain 1 of 2): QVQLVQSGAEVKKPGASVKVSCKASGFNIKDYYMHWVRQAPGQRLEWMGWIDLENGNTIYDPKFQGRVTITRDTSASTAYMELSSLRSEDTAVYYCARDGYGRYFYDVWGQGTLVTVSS
T22 sequence (VL, as listed by the source limits assumed, chain 2 of 2): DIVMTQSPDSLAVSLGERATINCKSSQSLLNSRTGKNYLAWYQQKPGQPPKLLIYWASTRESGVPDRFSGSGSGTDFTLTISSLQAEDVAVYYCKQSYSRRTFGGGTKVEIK
T21 sequence (VH, as listed by the source limits assumed, chain 1 of 2): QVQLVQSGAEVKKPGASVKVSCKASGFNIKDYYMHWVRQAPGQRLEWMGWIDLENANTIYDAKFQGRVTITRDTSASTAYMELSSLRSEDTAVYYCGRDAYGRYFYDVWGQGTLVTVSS
T13 sequence (VH, as listed by the source limits assumed, chain 1 of 2): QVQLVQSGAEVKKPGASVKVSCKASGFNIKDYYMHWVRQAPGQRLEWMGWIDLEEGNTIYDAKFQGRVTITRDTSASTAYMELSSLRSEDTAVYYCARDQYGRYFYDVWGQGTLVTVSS
T13 sequence (VL, as listed by the source limits assumed, chain 2 of 2): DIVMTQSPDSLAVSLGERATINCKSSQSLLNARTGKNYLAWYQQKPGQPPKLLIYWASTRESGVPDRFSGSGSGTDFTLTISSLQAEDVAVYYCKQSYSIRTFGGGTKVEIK
T17 sequence (VH, as listed by the source limits assumed, chain 1 of 2): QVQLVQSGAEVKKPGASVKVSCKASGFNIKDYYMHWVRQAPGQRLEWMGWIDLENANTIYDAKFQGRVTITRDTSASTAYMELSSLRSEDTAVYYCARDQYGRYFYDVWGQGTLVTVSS
T11 sequence (VH, as listed by the source limits assumed, chain 1 of 2): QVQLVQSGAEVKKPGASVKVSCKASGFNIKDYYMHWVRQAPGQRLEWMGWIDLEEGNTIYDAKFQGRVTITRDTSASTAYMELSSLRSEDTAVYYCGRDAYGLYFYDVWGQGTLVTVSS
T12 sequence (VH, as listed by the source limits assumed, chain 1 of 2): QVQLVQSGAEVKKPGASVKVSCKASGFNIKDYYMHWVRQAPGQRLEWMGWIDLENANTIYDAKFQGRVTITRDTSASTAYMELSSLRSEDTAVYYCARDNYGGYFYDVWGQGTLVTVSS
T12 sequence (VL, as listed by the source limits assumed, chain 2 of 2): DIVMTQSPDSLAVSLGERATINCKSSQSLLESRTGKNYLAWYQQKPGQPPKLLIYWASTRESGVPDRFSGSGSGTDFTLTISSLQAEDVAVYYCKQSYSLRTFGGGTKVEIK
T7 sequence (VH, as listed by the source, chain 1 of 2): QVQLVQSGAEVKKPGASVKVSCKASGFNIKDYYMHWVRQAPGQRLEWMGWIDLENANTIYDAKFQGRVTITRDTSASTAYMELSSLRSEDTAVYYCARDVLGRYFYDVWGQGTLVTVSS
T6 sequence (VH, as listed by the source, chain 1 of 2): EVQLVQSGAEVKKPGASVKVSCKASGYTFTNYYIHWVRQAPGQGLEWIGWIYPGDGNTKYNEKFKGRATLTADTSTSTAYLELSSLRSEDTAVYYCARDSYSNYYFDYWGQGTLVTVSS
T6 sequence (VL, as listed by the source, chain 2 of 2): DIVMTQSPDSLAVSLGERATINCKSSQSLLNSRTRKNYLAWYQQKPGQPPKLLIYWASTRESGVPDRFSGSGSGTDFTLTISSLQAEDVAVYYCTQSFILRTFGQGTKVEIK
T3 sequence (VH, as listed by the source limits assumed, chain 1 of 2): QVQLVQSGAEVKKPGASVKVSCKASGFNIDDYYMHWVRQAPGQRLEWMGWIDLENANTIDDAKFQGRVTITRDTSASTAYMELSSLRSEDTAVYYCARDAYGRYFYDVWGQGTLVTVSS
T9 sequence (VH, as listed by the source, chain 1 of 2): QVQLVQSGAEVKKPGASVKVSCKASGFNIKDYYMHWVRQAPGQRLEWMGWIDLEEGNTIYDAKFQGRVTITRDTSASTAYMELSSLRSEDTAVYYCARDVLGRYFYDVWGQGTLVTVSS
T2 sequence (VH, as listed by the source, chain 1 of 2): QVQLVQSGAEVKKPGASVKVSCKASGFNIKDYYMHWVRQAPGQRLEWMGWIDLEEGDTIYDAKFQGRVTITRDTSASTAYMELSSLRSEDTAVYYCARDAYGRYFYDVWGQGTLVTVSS
T4 sequence (VH, as listed by the source limits assumed, chain 1 of 2): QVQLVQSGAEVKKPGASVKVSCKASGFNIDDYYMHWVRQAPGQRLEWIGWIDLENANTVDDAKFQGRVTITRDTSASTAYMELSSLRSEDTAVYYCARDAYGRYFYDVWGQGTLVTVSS
T18 sequence (VH, as listed by the source, chain 1 of 2): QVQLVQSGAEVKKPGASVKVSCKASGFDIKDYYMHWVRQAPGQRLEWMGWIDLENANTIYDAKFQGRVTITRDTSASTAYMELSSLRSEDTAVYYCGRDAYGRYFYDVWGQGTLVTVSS
T8 sequence (VH, as listed by the source, chain 1 of 2): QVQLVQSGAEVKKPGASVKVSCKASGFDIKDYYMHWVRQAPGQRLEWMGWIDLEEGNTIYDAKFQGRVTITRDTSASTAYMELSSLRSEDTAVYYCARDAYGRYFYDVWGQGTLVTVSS
T24 sequence (VH, as listed by the source limits assumed, chain 1 of 2): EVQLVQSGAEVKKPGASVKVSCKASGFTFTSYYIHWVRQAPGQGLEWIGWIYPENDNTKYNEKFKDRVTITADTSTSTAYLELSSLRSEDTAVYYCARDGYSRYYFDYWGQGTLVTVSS
T24 sequence (VL, as listed by the source limits assumed, chain 2 of 2): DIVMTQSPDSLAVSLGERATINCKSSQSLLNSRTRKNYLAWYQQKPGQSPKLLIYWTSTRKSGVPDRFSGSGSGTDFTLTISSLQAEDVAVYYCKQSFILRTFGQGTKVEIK
T15 sequence (VH, as listed by the source limits assumed, chain 1 of 2): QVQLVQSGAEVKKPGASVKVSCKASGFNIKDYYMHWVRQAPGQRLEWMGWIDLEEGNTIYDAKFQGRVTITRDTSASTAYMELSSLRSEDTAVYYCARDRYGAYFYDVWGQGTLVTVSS

B1: ADI-34134 IgG (antibody, V domains shown)
VH: QVQLVQSGAEVKKPGSSVKVSCKASGGTFSSYAISWVRQAPGQGLEWMGGIIPIFGTANYAQKFQGRVTITADESTSTAYMELSSLRSEDTAVYYCARGAPNYYGSGGYDDGWFDPWGQGTLVTVSS
VL: EIVLTQSPGTLSLSPGERATLSCRASQSVSSDYLAWYQQKPGQAPRLLIYGASSRATGIPDRFSGSGSGTDFTLTISRLEPEDFAVYYCQQFGRVPTFGGGTKVEIK
Kd [1]: 14 nM | Kd [2]: 6.3 nM | Kd [3]: 12 nM | Kd [4]: 13 nM | Kd [5]: 3.6 nM | Kd [6]: 18 nM | Kd [7]: 34 nM | Kd [8]: 7.1 nM | Kd [9]: 19 nM | Kd [10]: 6.3 nM | Kd [11]: 0.46 nM | Kd [12]: 1.04 nM | Kd [13]: 0.85 nM | Kd [14]: 9.21 nM | Kd [15]: 1.13 nM | Kd [16]: 0.43 nM | Kd [17]: 0.45 nM | Kd [18]: 0.46 nM | Kd [19]: 0.57 nM | Kd [20]: 0.77 nM

B2: ADI-34145 IgG (antibody, V domains shown)
VH: EVQLLESGGGLVQPGGSLRLSCAASGFTFSSYAMSWVRQAPGKGLEWVSTISGSGGSTYYADSVKGRFTISRDNSKNTLYLQMNSLRAEDTAVYYCARLGGRRGSGSSYYYYYGMDVWGQGTTVTVSS
VL: not shown
notes: anti-ID IgG
Kd [21]: 14 nM | Kd [22]: 14 nM | Kd [23]: 20 nM | Kd [24]: 27 nM | Kd [25]: 67 nM | Kd [26]: 3.71 nM | Kd [27]: 3.16 nM | binding result [28]: no binding | binding result [29]: no binding
